Data taken from paper PMC7889895, “Crystal structure of a photosynthetic LH1-RC in complex with its electron donor HiPIP” (Nature Communications, 2021).

Target: light-harvesting 1 - reaction center complex (LH1-RC) of Thermochromatium tepidum (Thermochromatium tepidum, UniProt D2Z0P5 23-404; D2Z0P3 1-281; A8ASG6 1-325; D2Z0P9 1-259; D2Z0P2 1-61; D2Z0P1 …)
Assay: crystal structure; co-crystal by micro-batch under oil; HiPIP:LH1-RC mixed 15:1, LH1-RC 0.0694 mM; 30 mM sodium succinate pH 5, 20 mM CaCl2, 3.4% OPC, 30% PEG 1500; 20 °C; 2.9 Å
Details: both partners purified

B1: high-potential iron-sulfur protein (HiPIP) of Thermochromatium tepidum (natural protein, UniProt P80176 1-83, looked up)
chain: AAPANAVTADDPTAIALKYNQDATKSERVAAARPGLPPEEQHCANCQFMQANVGEGDWKGCQLFPGKLINVNGWCASWTLKAG
notes: High-potential iron-sulfur protein (HiPIP), Thermochromatium tepidum strain MC, native protein with its 4Fe-4S cluster, purified in the reduced state; Carries a 4Fe-4S cluster; also called Tch. tepidum HiPIP; source: purified from Tch. tepidum strain MC (soluble fraction of sonicated cells, DEAE column)
For B1, the “stoichiometry N” value was 1 HiPIP per LH1-RC.
